Results on one molecule are retold here after patent publication US20060073508A1 (published 2006).

This test concerns the target GRK2 (βARK1). The test can be described thus: cell-based or functional assay.

B1: hemagglutinin epitope-tagged Del301-303 human alpha-2B adrenergic receptor (receptor)
chain: YPYDVPDYAMDHQDPYSVQATAAIAAAITFLILFTIFGNALVILAVLTSRSLRAPQNLFLVSLAAADILVATLIIPFSLANELLGYWYFRRTWCEVYLALDVLFCTSSIVHLCAISLDRYWAVSRALEYNSKRTPRRIKCIILTVWLIAAVISLPPLIYKGDQGPQPRGRPQCKLNQEAWYILASSIGSFFAPCLIMILVYLRIYLIAKRSNRRGPRAKGGPGQGESKQPRPDHGGALASAKLPALASVASAREVNGHSKSTGEKEEGETPEDTGTRALPPSWAALPNSGQGQKEGVCGASPEDEAEEEEEEEEECEPQAVPVSPASACSPPLQQPQGSRVLATLRGQVLLGRGVGAIGGQWWRRRAQLTREKRFTFVLAVVIGVFVLCWFPFFFSYSLGAICPKHCKVPHGLFQFFFWIGYCNSSLNPVIYTIFNQDFRRAFRRILCRPWTQTAW
For B1, the “agonist-promoted whole cell phosphorylation of the receptor (10 µM norepinephrine)” value is 3.28 fold increase.
